According to patent US20260108588A1, “A COMPLEX COMPRISING A ALPHA-LACTALBUMIN AND A FATTY ACID OR LIPID FOR USE IN THE TREATMENT OR PREVENTION OF CANCER” (LINNANE PHARMA AB, priority 2022, published 2026):

How the values were obtained:
[1] = tested on: DLD1 cells; test: Cell death assays (Prestoblue and ATPlite); format: cell-based, human; details: 7, 21 and 35 μM each, FIG. 12g-i
Method: Two assays were used as an indirect measure of cell death. Luminescence-based ATPlite™ kit (Perkin Elmer) as well as the Prestoblue assay (ThermoFisher Scientific). Cells (5×10^4 cells/well) were seeded in serum-free RPMI-1640 on 96-well plates and treated with BAMLET and alpha1-oleate at different concentration (7, 21, and 35 μM) and incubated for one hour. Afterward, FCS was added at concentration of 5% and the cells were continuously incubated for two hours at 37° C., at the end of which the two kits were used according to manufactures' instructions. Luminescence and fluorescence were measured using a microplate reader (Infinite F200, Tecan). The experiments were performed in triplicate and repeated twice.

[2] = tested on: bladder cancer; details: patients; cited from earlier work
[3] = tested on: tumor cells; details: cited from earlier work
[4] = tested on: bladder cancer; details: local instillations; cited from earlier work
[5] = tested on: skin papillomas; details: topical application; cited from earlier work

Molecule | tumoricidal effect, BAMLET compared with alpha1-oleate [1] | therapeutic efficacy in bladder cancer [2] | tumor cell killing in vitro [3] | tumor size in bladder cancer [4] | effect on skin papillomas [5]
alpha1-oleate: HAMLET family member formed by the N-terminal alpha-helical peptide (aa 1-39) of alpha-lactalbumin and oleate [reference compound] | similar | has shown therapeutic efficacy |  |  | 
HAMLET: tumoricidal unfolded protein-lipid complex of partially unfolded human α-lactalbumin and oleic acid (protein, UniProt P00709 20-142, looked up, complexed with oleic acid) Alpha-lactalbumin: KQFTKCELSQLLKDIDGYGGIALPELICTMFHTSGYDTQAIVENNESTEYGLFQISNKLWCKSSQVPQSRNICDISCDKFLDDDITDDIMCAKKILDIKGIDYWLAHKALCTEKLEQWLCEKL |  |  | kills many types of tumor cells | caused a reduction in tumor size | removed or reduced skin papillomas
